Assays:
[1] = target: T1, CXCR3 (UniProt P49682 1-368, limits assumed); test: total binding of [125I]-238D2 to membranes of HEK293T cells expressing CXCR4 or CXCR3
T1 construct: whole, on cells
T1 sequence (looked up): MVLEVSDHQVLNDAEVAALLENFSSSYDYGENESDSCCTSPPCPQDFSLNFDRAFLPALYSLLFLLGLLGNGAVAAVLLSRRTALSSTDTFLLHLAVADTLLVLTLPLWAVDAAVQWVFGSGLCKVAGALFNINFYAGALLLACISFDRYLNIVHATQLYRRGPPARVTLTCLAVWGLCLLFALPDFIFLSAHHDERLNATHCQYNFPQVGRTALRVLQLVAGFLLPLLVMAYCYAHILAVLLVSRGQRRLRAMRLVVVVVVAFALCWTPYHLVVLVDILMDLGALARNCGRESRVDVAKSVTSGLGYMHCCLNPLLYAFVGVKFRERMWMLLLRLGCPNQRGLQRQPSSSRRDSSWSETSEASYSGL

[2] = target: CCR5 (UniProt P51681 1-352, limits assumed); test: cell-based or functional assay
CCR5, sequence (P51681 whole entry): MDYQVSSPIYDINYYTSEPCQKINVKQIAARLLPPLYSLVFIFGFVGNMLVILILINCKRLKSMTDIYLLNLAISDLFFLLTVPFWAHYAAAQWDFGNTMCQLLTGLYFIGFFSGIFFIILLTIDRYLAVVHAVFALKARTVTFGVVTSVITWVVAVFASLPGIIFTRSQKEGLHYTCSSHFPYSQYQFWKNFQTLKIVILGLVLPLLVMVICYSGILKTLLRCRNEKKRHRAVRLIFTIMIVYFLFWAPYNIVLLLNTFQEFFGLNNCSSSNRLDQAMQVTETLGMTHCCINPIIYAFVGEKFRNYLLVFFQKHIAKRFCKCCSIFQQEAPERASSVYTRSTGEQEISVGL

[3] = target: human CD4 on cells (human, UniProt P01730 26-458); test: cell-based or functional assay

| Binder | binding result [1] | IC50, HIV-1 BaL, PBMC donor 1 [2] [ng/mL] | IC50, HIV-1 BaL, PBMC donor 2 [2] [ng/mL] | nM IC50, HIV-1 BAL, PBMC donor 1 [2] [nM] | nM IC50, HIV-1 BAL, PBMC donor 2 [2] [nM] | anti-HIV activity, NL4.3 on MT4 cells, MTS method, IC50 [3] [nM] | anti-HIV activity, NL4.3 on MT4 cells, p24 levels, IC50 [3] [nM] |
| --- | --- | --- | --- | --- | --- | --- | --- |
| Nanobody 238D2 (VHH, In some assays the Nanobody was 125I-labelled (Iodo-gen, on tyrosine); the letters do not carry this., Monovalent llama VHH against human CXCR4, purified; tags not described; also called 238C1) VHH: EVQLVESGGGLVQTGGSLRLSCAASGFTFSSYAMSWVRQAPGKGLEWVSGIKSSGDSTRYAGSVKGRFTISRDNAKNMLYLQMYSLKPEDTAVYYCAKSRVSRTGLYTYDNRGQGTQVTVSS | no binding (tested: 3 nM radioligand) | > 1000 | > 1000 | > 67 | > 67 |  |  |
| Nanobody 03F11 (VHH) VHH: EVQLVESGGGSVQPGGSLTLSCGTSGRTFNVMGWFRQAPGKEREFVAAVRWSSTGIYYTQYADSVKSRFTISRDNAKNTVYLEMNSLKPEDTAVYYCAADTYNSNPARWDGYDFRGQGTQVTVSS |  |  |  |  |  | 85 | 15 |

— US20110318347A1 (Ablynx, published 2011)
